Results: the supplement of paper PMC10724198
± gives the standard deviation of the averaged measurements.

test system: Saccharomyces cerevisiae; experiment: protein stability index of tFT-peptide fusion (C-terminal peptide) (PSI (0-1 scale)); higher = more stable (slower turnover); conditions: genetic background: wild type; temperature: 30 C
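Further: PSI is a weighted mean of sequencing reads over stability bins, variants kept only with over 10 reads, mCherry proximal and sfGFP distal, peptide attached via GGGS linker.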

Sequence	protein stability index
VRGGVSWGMRGG	0.634 ± 0.089
VRGVGGLWVGAV	0.684 ± 0.012
VRGVGLVDVVGL	0.727 ± 0.12
VRIIVVDLGGRR	0.684 ± 0.0082
VRKKGKKKKKDK	0.678 ± 0.031
VRKKRKKELAKV	0.794 ± 0.086
VRQSQIKHVVVQ	0.627 ± 0.019
VRRLSASSDGKI	0.761 ± 0.14
VRRWGKWSIVGW	0.736 ± 0.03
VRSILEGRRGEK	0.709 ± 0.032
VRSTPLKEMMRH	0.681 ± 0.0092
VRVRSLEGWGMG	0.6687 ± 0.0048
VRVSSSDILICL	0.675 ± 0.079
VRWSRFCLAFPV	0.605 ± 0.04
VSDTRELSSDQI	0.656 ± 0.02
VSFGFHKWCHSR	0.638 ± 0.015
VSGGRQVGGGGW	0.72 ± 0.088
VSGGRQVGWGGW	0.686 ± 0.011
VSGICCRGVLLL	0.6268 ± 0.00045
VSGLGAHEPDKL	0.667 ± 0.0072
VSGSTGVWCRWG	0.668 ± 0.048
VSGVREGCSEME	0.773 ± 0.11
VSLGHGYVFRRV	0.6921 ± 0.0058

Sequence	protein stability index
VSMPVGWRSWGG	0.694 ± 0.013
VSPTRSRPSSPA	0.692 ± 0.055
VSRLTVIPAVQT	0.652 ± 0.027
VSRRCVALRVGN	0.579 ± 0.017
VSRVDGAGHSAV	0.66 ± 0.0088
VSSAGAQHQVTH	0.667 ± 0.025
VSSRWGGWWNGV	0.655 ± 0.046
VSSVEHCLGHCR	0.738 ± 0.11
VSVFNFPSLFVG	0.66 ± 0.063
VSVGVCGYKVWG	0.709 ± 0.1
VSVILAGLFWIT	0.473 ± 0.038
VSVLCADGVLRM	0.725 ± 0.028
VSVLCGSRLAFE	0.685 ± 0.04
VSVRLAINRKEW	0.6738 ± 0.00093
VSWVMSEMRKGE	0.697 ± 0.031
VSWVWMGRLGYC	0.657 ± 0.02
VTCALGIGGVGV	0.716 ± 0.05
VTFRCHHSRQVM	0.725 ± 0.14
VTGCAVLSGAGE	0.675 ± 0.051
VTGSHARFSVPE	0.658 ± 0.013
VTHDSACSSRLA	0.683 ± 0.019
VTHREFAGSALG	0.698 ± 0.022
VTLSYDTKWLWL	0.665 ± 0.07

Sequence	protein stability index
VTPLPPPRTFLP	0.67 ± 0.07
VTPPTPPSRASP	0.667 ± 0.02
VTPVPFRTMMST	0.571
VTREEVSAGRGR	0.657 ± 0.058
VTRLTGKLVAEK	0.576 ± 0.027
VTSSLHAVPWSR	0.693 ± 0.0088
VTTDLALCGSVC	0.624 ± 0.016
VTTPHPPAPPPP	0.765 ± 0.02
VTTQELRCRPEG	0.636 ± 0.019
VTVCQTRGADSV	0.579 ± 0.01
VVAGGERMRTGV	0.671 ± 0.022
VVCLGLPIQAGV	0.526 ± 0.017
VVCVGGVELLVL	0.532 ± 0.019
VVCVGSEVGEGG	0.7243 ± 0.0045
VVFEVFLTHMSM	0.624 ± 0.065
VVFFSSPHFVRA	0.609 ± 0.05
VVGAVVLRRGGP	0.67 ± 0.012
VVGFVPVWRAGS	0.593 ± 0.031
VVGSVFGGVRAA	0.708 ± 0.032
VVGVAVSRTFAR	0.618 ± 0.039
VVIFPPTFISGG	0.643 ± 0.1
VVIRVKDEPFIM	0.6781 ± 0.0067
VVKFLALIPLSP	0.583 ± 0.01

Sequence	protein stability index
VVLLGAVGLVER	0.679 ± 0.029
VVLRSTFFGSLL	0.699 ± 0.0089
VVLSCGIPGCVF	0.572 ± 0.028
VVLSRSLTDLVR	0.677 ± 0.077
VVLTGPGYCLTL	0.763 ± 0.047
VVNVVGRVVPKG	0.7396 ± 0.006
VVQLSKWSTIIR	0.64 ± 0.061
VVRHWRRMTGDA	0.629 ± 0.12
VVRLGSNYYGGT	0.756 ± 0.004
VVRWFGGGGVRG	0.719 ± 0.1
VVSGIFQVLATC	0.614 ± 0.084
VVSHRGVGKGEG	0.607 ± 0.047
VVSLGLGGFVVR	0.719 ± 0.033
VVTGVRFGVGSI	0.697 ± 0.039
VVVGGVWIRRVW	0.654 ± 0.052
VVVGPVTKRGGH	0.68 ± 0.046
VVVQSGSSYKEY	0.7 ± 0.11
VVVVCSWPVSLL	0.5744 ± 0.0042
VVVVSGFKGSCL	0.637 ± 0.065
VVWRRVIGGLVM	0.637 ± 0.031
VVWSWCWEYAAV	0.625 ± 0.013
VWCWCGWGVWGL	0.629 ± 0.063
VWFLSYLSVIFP	0.58 ± 0.04

Sequence	protein stability index
VWGGWRRGRAWW	0.72411 ± 0.00051
VWGLGGEFWWGV	0.745 ± 0.014
VWGQGTPFRVVM	0.655 ± 0.091
VWGTVCSMRREG	0.63 ± 0.028
VWLLSNGFLAVD	0.706 ± 0.049
VWRHSGRVASLA	0.624 ± 0.0098
VWTITGFIPVVF	0.517 ± 0.032
VYEGIQEKTTRQ	0.5754 ± 0.0057
VYHQLNDRLSLG	0.70389 ± 0.00025
VYTFGASKSMLG	0.629 ± 0.035
VYVFGCVVGSGW	0.639 ± 0.032
WAAGLRVCRSVL	0.704 ± 0.052
WAASGGAARYAP	0.684 ± 0.037
WADAAYLGCWWD	0.737 ± 0.072
WAFGFLFISSAM	0.5077 ± 0.0014
WAGGRHCKGVVV	0.681 ± 0.13
WARGVAASGRFV	0.6916 ± 0.0025
WASRSGPRVTLI	0.71 ± 0.018
WCGDVLWLMSCG	0.714 ± 0.016
WCGQVFWCVKES	0.699 ± 0.039
WCLDCVGFSLPE	0.687 ± 0.054
WCRVCNRLVVGV	0.5258 ± 0.0015
WDSGRWSCLRGW	0.698 ± 0.044

Sequence	protein stability index
WDVVECCLWRYR	0.681 ± 0.034
WERREGTGMRAG	0.748 ± 0.051
WESGRNNWYMNK	0.798 ± 0.13
WEVLGGFVWASC	0.6828 ± 0.0045
WFLSGGCLFCWR	0.714 ± 0.061
WFPRLGKRSRGS	0.69 ± 0.025
WFQSSLVCDTWL	0.681 ± 0.015
WFSSPVTISTRK	0.692 ± 0.11
WGAGGGVWWGGV	0.704 ± 0.03
WGAKGLESIHVM	0.6 ± 0.019
WGCAGVGGVGGG	0.6853 ± 0.0065
WGCGGGRDGCGV	0.647 ± 0.095
WGCGVRWGVDWA	0.732 ± 0.026
WGGASIGMGFGA	0.743 ± 0.036
WGGCNTALLTIL	0.581 ± 0.018
WGGFLVDFGFQG	0.757 ± 0.046
WGGLGRVWVKLG	0.706 ± 0.038
WGGLGWVWVKLG	0.685 ± 0.072
WGGTRCGGREVV	0.692 ± 0.054
WGGVGLWGGWDG	0.723 ± 0.058
WGGVRRHGVGGS	0.648 ± 0.1
WGLIASGSIVIV	0.548 ± 0.05
WGPGGRLGVGHV	0.676 ± 0.039

Sequence	protein stability index
WGRARCAVGVSG	0.629 ± 0.0092
WGRCVGLAGAAG	0.677 ± 0.027
WGREGRVPGWAG	0.671 ± 0.11
WGRGGSGGSWGA	0.688 ± 0.018
WGRGRGEMVGRT	0.705 ± 0.038
WGRGRWEMVGRT	0.693 ± 0.037
WGRNRGASDPNL	0.7198 ± 0.0046
WGVGCVRGVWGA	0.714 ± 0.088
WGVGWVLEVLLG	0.529 ± 0.0066
WHSGVICQTVLM	0.651 ± 0.014
WICFDFLLPVAL	0.549 ± 0.025
WIDSGCALVEIA	0.701 ± 0.045
WIFPPLPPPLPR	0.7174 ± 0.0037
WILDKECFKECD	0.654 ± 0.046
WIPITSDKCNFK	0.709 ± 0.06
WKCHRTDSRKRW	0.726 ± 0.044
WKSSRSRCIHGE	0.707 ± 0.026
WKVFKGLSADVS	0.669 ± 0.026
WLGGGGTVAHSP	0.726 ± 0.1
WLPPPPPPSPSS	0.767 ± 0.0026
WLTNKYDNIVKD	0.7634 ± 0.0068
WLVADWLLALFW	0.627 ± 0.019
